The nature of this data set: soluble on expression in E. coli; label from the status in PepcDB or PDB records.
For the sequence “LENPLYYLHNFRQVLNWLQLRYADVLSADEQRFILDFAQLAEPSQALLVRMVMRKGRHFRLSKLSYPEIGDSAAALEPLLALGWVDEQAPLCLEELFGLLQKAEILQCFNGLAAKARKDQWLEELTQQGLAPQAFAQWCPALPDRLLSLTLMPLCDRLRLMFFGNLYQDWSEFVLADLGIYSYEKVEISADARGLRSREDVDGFLYLHECQEAFEAGAELPEVLAHIARFQTLNPWLEKRRAKLLFQLGQQCERLAQWALARQIYQECAYPGARSRLIRVLERSAQYQAALALAEQAAAAPESAAEAQHLLRIMPRLRRKLGGPPAPRAANREVQRLDLCLARDADGLAVELHVQAHLHQPQAPVHYVENSLINSLFGLLCWPAIFAPLPGAFFHPFQRGPVDLFSEDFHQRRSELFQACLAELDDGRYRQSIRQRFVAKWGLQSPFVFWGALSEELLDQALDCLPAEHLKHWFQRLLLDIKANRAGMPDLIQFWPEQKRYRMIEVKGPGDRLQDNQLRWLDFCQEHRMPVAVCYVQWQ”, the “soluble on expression in E. coli” value is “not soluble”. Next, “LGKQIMFDAFRFKCPPQELNAAIIKQLRGLLDLGIGEIKARAEKQEALLEYPIFFNDWQDNKKIIRNLLDRISADQLPLEIYRYTTFEDGSVLEEQLTLKEANEALTALQRIELEQDMLSQLEAGHISSRDEYVPDDEDV”: “not soluble”; “LKDSYVEYTLLYDTIASRISIDEVEAKDGKLRLMKNVWWEYDKLPHMLIAGGTGGGKTYFILTLIEALLHTDSKLYILDPKNADLADLGSVMANVYYRKEDLLSCIETFYEEMMKRSEEMKQMKNYKTGKNYAYLGLPAHFLIFDEYVAFMEMLGTKENTAVMNKLKQIVMLGRQAGFFLILACQRPDA”: “not soluble”.

With “LKQRRKIANEVKIKNTLLEYAQQITQMGTFEYNVFTNTLFWSNEMYNIFELDRSVIPEINFIDSLIKEESEITHNRRKKNFQPGASYSDELKIRTVNGNEKVLISNGYVVNEENGLVVHGAIIDIT”, the “soluble on expression in E. coli” value is reported as “not soluble”. Next, “LLEIDFAELTLEEIIGIGGFGKVYRAFWIGDEVAVKAARHDPDEDISQTIENVRQEAKLFAMLKHPNIIALRGVCLKEPNLCLVMEFARGGPLNRVLSGKRIPPDILVNWAVQIARGMNYLHDEAIVPIIHRDLKSSNILILQKVENGDLSNKILKITDFGLAREWHRTTKMSAAGAYAWMAPEVIRASMFSKGSDVWSYGVLLWELLTGEVPFRGIDGLAVAYGVAMNKLALPIPSTCPEPFAKLMEDCWNPDPHSRPSFTNILDQLTTI”: “soluble”; “LLPLRGLLVFPTMVLHLDVGRKKSVEALEHAMIDDHYILLAAQKEISIDEPIETDIYQIGTYAKVKQMLKLPNGTIRVLVEGLQRAKIEKYVANDAFIEVEMCTLPEDDEDNATENKALMRNVLQLFEQYIKLSKKVSAETLASVSDIAEPGRLADVIASHLPLKIVEKQQLLETTSVKERLLQV”: “soluble”. For the sequence “LLQHAHNPVNWYSWSPEAFSKAKSEDKPIFLSIGYSTCHWCHVMERESFEDDDVAEVLNRSFVSIKVDREERPDIDEIYMNVCTAITGSGGWPLTIVMTPEQKPFFAGTYIPKNNRMGMQGLISLLENIEYQWKENQNELVEIGDKIVSSLNKDRKT”, the “soluble on expression in E. coli” value is “not soluble”.

Consider “LNDAWFNSSVVRAMLTHTRVFGRYEGPEEKLFRTANYTEINCIDNYAPTEMIEVKVTDRSGAVVEGADIRFCIYNYSEFYPVVTKQSDAQGLASLRVGKGDMLIWAAKDGLFGYALSKADDRKPLAIALDNFEAQPEWADFKIVPPAGDPIPTTCSPQQISTNDARLLREDSIRAAYEATFATAEQSAALAAELGVDAPALTGILQTSRGNHADIEGFLRSVEAGKARQRAMDLLQTVSPKDLTDTPESLLKVIFRDMAEPAPEAASGEAYRHHLRYVASPRIYTEMLSSFVPTLRSILTAKEQEAMRQDPAELVRWVSSNIRLDTLYNTQYTTITPVGVWRAKRADLRSMGIFFVAMARTLGIPARYDEVTGKIQYSKELMPLRWSDVNLRESKTALKEQGSLALDYSPTALAPNPNYYSRFTVAELQPSGIIRTLYYDENEPTDLKTLFDRPKEMNAGHYFLVTGTRMASGSVLCRMRKFTVEAGKTARQPLELLHDSTDIQVIGSINAEQLYHDLSHAEDRSLLSTTGRGYFAMAILGAGQEPTNHALKDLEKVKADFEQWGRKLILLFPDADGHKRYKPADFPSLPETAVFGLDIQGRNAAMIREAANLPDATNLPIVIIADSFGRVVFVRQGYTIGLGEQMMQVIHRL”, for which the “soluble on expression in E. coli” value is listed as “not soluble”.

Regarding “LPAYEKQVEVVEKDLEQVHICLGTKAFPQNHPRRFEVYLVNTLLGGSMSSRLFQEIRERLGLAYSVYSYVVSHTDAGSLVVYVGTSPEKLDDVLDITVAELKRLKTELVPLPELESAKEQIKGSIYLSLESSDNRMTKLAKNEIYFGRYIPIHELADGFDSVTSRGILELAGEIFDERYLTLALMGKIDSAAFDVSRLAL”, the “soluble on expression in E. coli” value is recorded as “not soluble”.

As for “LPHLMKYMGSKRELLDFIISSINDLDIESNWFCDLFSGTSVVGCSLKDEYNVQINDIQIYTSIFANTYLPNINKLINSTELEKIKDRVLFYVDEFYRKYPDLIFDYNSIDNYEKLTKLEIQQQNLIYSNFEIGFHLFVKYYSGTYWSYTQCVWIDSIRAVAEEYKGKSDYYIILSSLIYAMSYTSQSTGHFAQFRDVTESNMHDIMLYRIRDIWTYFEKKFLEILNMVDVEATNRYTITTLDYLDCLRLIERNTIVYADPPYSSVHYSRFYHAIETLIRYDYPNVKYKGRYREDRHQSPFGKKTEVKNAFGKLFKGVKNKNSHLILSYSDNGMITQDEIMEIGNSIMGNQYKGDIQVKEYIHSKMGRSDIHSMGVNELIISYKRQ”, the “soluble on expression in E. coli” value is reported as “not soluble”. Consider “LPLRESHTAHQATDFGVKVFQQVVQASKDRNVVFSPYGVSSVLAMLQMTTAGKTRRQIQDAMGFKVNEKGTAHALRQLSKELMGPWNKNEISTADAIFVQRDLELVQGFMPHFFKLFQTMVKQVDFSEVERARFIINDWVERHTKGMINDLLAKGAVDELTRLVLVNALYFSGQWKTPFLEASTHQRLFHKSDGSTVSVPMMAQSNKFNYTEFTTPDGLEYDVVELPYQGDTLSMFIAAPFEKDVHLSALTNILDAELIRQWKGNMTRLPRLLILPKFSLETEVDLRGPLEKLGMPDMFSATLADFTSLSDQEQLSVAQALQKVRIEVNESGTVASSSTAFVISARMAPTEMVIDRSFLFVVRHNPTETILFMGQVMEP”, for which the “soluble on expression in E. coli” value is recorded as “soluble”. Then LPPGWQSYLSPQGRRYYVNTTTNETTWERPSSS, with “soluble”.

Take “LRNATQRMFEIDYSRDSFLKDGQPFRYISGSIHYSRVPRFYWKDRLLKMKMAGLNAIQTYVPWNFHEPWPGQYQFSEDHDVEYFLRLAHELGLLVILRPGPYICAEWEMGGLPAWLLEKESILLRSSDPDYLAAVDKWLGVLLPKMKPLLYQNGGPVITVQVENEYGSYFACDFDYLRFLQKRFRHHLGDDVVLFTTDGAHKTFLKCGALQGLYTTVDFGTGSNITDAFLSQRKCEPKGPLINSEFYTGWLDHWGQPHSTIKTEAVASSLYDILARGASVNLYMFIGGTNFAYWNGANSPYAAQPTSYDYDAPLSEAGDLTEKYFALRNIIQKFEKVPEGPIPPSTPKFAYGKVTLEKLKTVGAALDILCPSGPIKSLYPLTFIQVKQHYGFVLYRTTLPQDCSNPAPLSSPLNGVHDRAYVAVDGIPQGVLERNNVITLNITGKAGATLDLLVENMGRVNYGAYINDFKGLVSNLTLSSNILTDWTIFPLDTEDAVRSHLGGWGHRDSGHHDEAWAHNSSNYTLPAFYMGNFSIPSGIPDLPQDTFIQFPGWTKGQVWINGFNLGRYWPARGPQLTLFVPQHILMTSAPNTITVLELEWAPCSSDDPELCAVTFVDRPVIGSSVTYDHPSKPVEKRLMPPPPQKNKDSWLDHV”: the “soluble on expression in E. coli” value is given as “soluble”. On to “LRSRRKPSSRIGRRPSTTQDRISTVGIELFTEQGFDATSVDEVAEASGIARRTLFRYFPSKNAIPWGDFDAHLAEMRAQLAAQPDDIPIVDGLTAALLQFNAFPASEEINHRKRMGLILRVPALQAYSVVMYEGWRNVIAEYVASRLGTSPTDHVPRTVGYLLLGVAMSAYEQWLDDDSLELNELLASGMQSLYDGLSSLGEPDTRT”, for which the “soluble on expression in E. coli” value is listed as “soluble”. Then “LSAPDSITVTVADHNGVAVLSIGGEIDLITAAALEEAIGEVVADNPTALVIDLSAVEFLGSVGLKILAATSEKIGQSVKFGVVARGSVTRRPIHLMGLDKTFRLFSTLHDALTGVRGGRIDR”, with “soluble”. Then “LSPPRGLVAVRTPRGVLLHWDPPELVPKRLDGYVLEGRQGSQGWEVLDPAVAGTETELLVPGLIKDVLYEFRLVAFAGSFVSDPSNTANVSTSGL”, with “soluble”; and “LSSKYSRNTELRRVEDNDIYRLAKILDENSCWRKLMSIIPKGMDVQACSGAGCLNFPAEIKKGFKYTAQDVFQIDEAANRLPPDQSKSQMMIDEWKTSGKLNERPTVGVLLQLLVQAELFSAADFVALDFLNESTPARPVDGPGALISLELLE”, with “soluble”. Then “LTSGNINIGNLKVGNDYPMRVLGEIVHVPWLSKEELEEKVNYYVESGADMIDLGMVSNEDYSKDLKQIIKTVRDITDKPVSVDTLNTKELIEAVNLDVDMILSVDSGNFDELLPYLKEKNTVSVVLPTNYKTNEVPKKISEKIQNMEKILEKFKENDLLAVADPILEPINNSGCNFTESVIACYEFKKRNNIPMFFGIGNVTELFDVDSNGVNASIAAIGQEIGGNILFTPEASKKCKFSIKELKTASKMLFLAKKRNSLP”, with “not soluble”; and “LYLEQSDIEGHIGVFGSTGSGKTTTLATIACGAAEAGLPVVVADWHGEYQRLVGGGGCRPRVIDPGREGGVNPLSLGWDYSVKTALLASALGLTEPQHYMLLKLLEEHEPRSLIELHSMVEDVEENSRWDREVKRGLMRRLGPLASRAGRSLVEGEGPPIGGRGLYIVDTGSIGNVQLRKTYSILLAAYLQYKAYSRELGPLLLVVDEAHNMFDGEESFPSIMMAESRKFGLYIALATQNPHLLPLRAVSNTNTKIVHSLRWWRDLESIASALSLPRETASKLPHLGRGEAVVYAPSLGYPVLAKIVPPE”, with “not soluble”. In the case of “MAAAAVSSAKRSLRGELKQRLRAMSAEERLRQSRVLSQKVIAHSEYQKSKRISIFLSMQDEIETEEIIKDIFQRGKICFIPRYRFQSNHMDMVRIESPEEISLLPKTSWNIPQPGEGDVREEALSTGGLDLIFMPGLGFDKHGNRLGRGKGYYDAYLKRCLQHQEVKPYTLALAFKEQICLQVPVNENDMKVDEVLYEDSSTA”, the “soluble on expression in E. coli” value was “soluble”. Next, “MAAASISAIGCNQTLIGTSFYGGWGSSISGEDYQTMLSKTVAPPQQARVSRKAIRAVPMMKNVNEGKGLFAPLVVVTRNLVGKKRFNQLRGKAIALHSQVITEFCKSIGADAKQRQGLIRLAKKNGERLGFLA”: “not soluble”; “MAAEDELQLPRLPELFETGRQLLDEVEVATEPAGSRIVQEKVFKGLDLLEKAAEMLSQLDLFSRNEDLEEIASTDLKYLLVPAFQGALTMKQVNPSKRLDHLQRAREHFINYLTQCHCYHVAEFELPKTMNNSAENHTANSSMAYPSLVAMASQRQAKIQRYKQKKELEHRLSAMKSAVESGQADDERVREYYLLHLQRWIDISLEEIESIDQEIKILRERDSSREASTSNSSRQERPPVKPFILTRNMAQAKVFGAGYPSLPTMTVSDWYEQHRKYGALPDQGIAKAAPEEFRKAAQQQEEQEEKEEEDDEQTLHRAREWDDWKDTHPRGYGNRQNMGAAAAAALEHHHHHH”: “not soluble”; “MAAGESMAQRMVWVDLEMTGLDIEKDQIIEMACLITDSDLNILAEGPNLIIKQPDELLDSMSDWCKEHHGKSGLTKAVKESTVTLQQAEYEFLSFVRQQTPPGLCPLAGNSVHADKKFLDKHMPQFMKHLHYRIIDVSTVKELCRRWYPEDYEFAPKKAASHRALDDISESIKELQFYRNNIFKKKTDEKKRKIIENGETEKPVS”: “soluble”.

Source of the values: the DeepSol protein solubility set.
